Residue numbers refer to the chain shown, from its start.

For orientation: Kd means a measure of binding affinity in units of concentration.

B1: Ab1 Fab variant H1 A30P (Fab, V domains shown)
VH: QVQLQESGPGLVKPSQTLSLTCTVSGYPFTAYNIHWVRQAPGQGLEWMGSFDPYDGGSSYNQKFKDRLTISKDTSKNQVVLTMTNMDPVDTATYYCARGWYYFDYWGHGTLVTVSS
VL: DIVMTQTPLSLPVTPGEPASISCRASKSISKYLAWYQQKPGQAPRLLIYSGSTLQSGIPPRFSGSGYGTDFTLTINNIESEDAAYYFCQQHDESPYTFGEGTKVEIK
notes: Fab
B2: Ab1 Fab variant H2 G66H (Fab, V domains shown)
VH: B1 VH with P28A, G56H
VL: B1 VL
notes: Fab
B3: Ab1 Fab variant H1 G27N (Fab, V domains shown)
VH: B1 VH with G26N, P28A
VL: B1 VL
notes: Fab
B4: Ab1 Fab variant H2 G67K (Fab, V domains shown)
VH: B1 VH with P28A, G57K
VL: B1 VL
notes: Fab
B5: Ab1 Fab variant H1 Y39W (Fab, V domains shown)
VH: B1 VH with P28A, Y32W
VL: B1 VL
notes: Fab
B6: Ab1 Fab variant H2 F58V (Fab, V domains shown)
VH: B1 VH with P28A, F51V
VL: B1 VL
notes: Fab
B7: Ab1 Fab variant H2 G67Q (Fab, V domains shown)
VH: B1 VH with P28A, G57Q
VL: B1 VL
notes: Fab
B8: Ab1 Fab variant H2 N71G (Fab, V domains shown)
VH: B1 VH with P28A, N61G
VL: B1 VL
notes: Fab
B9: Ab1 Fab variant H2 D76V (Fab, V domains shown)
VH: B1 VH with P28A, D66V
VL: B1 VL
notes: Fab
B10: Ab1 Fab variant H2 N71A (Fab, V domains shown)
VH: B1 VH with P28A, N61A
VL: B1 VL
notes: Fab
B11: Ab1 Fab variant H2 G67Y (Fab, V domains shown)
VH: B1 VH with P28A, G57Y
VL: B1 VL
notes: Fab
B12: Ab1 Fab variant H2 G66N (Fab, V domains shown)
VH: B1 VH with P28A, G56N
VL: B1 VL
notes: Fab
B13: Ab1 Fab variant H2 N71S (Fab, V domains shown)
VH: B1 VH with P28A, N61S
VL: B1 VL
notes: Fab
B14: Ab1 Fab variant H1 Y29G (Fab, V domains shown)
VH: B1 VH with Y27G, P28A
VL: B1 VL
notes: Fab
B15: Ab1 Fab variant H2 G66D (Fab, V domains shown)
VH: B1 VH with P28A, G56D
VL: B1 VL
notes: Fab
B16: Ab1 Fab variant H2 S69K (Fab, V domains shown)
VH: B1 VH with P28A, S59K
VL: B1 VL
notes: Fab
B17: Ab1 Fab variant H2 S69V (Fab, V domains shown)
VH: B1 VH with P28A, S59V
VL: B1 VL
notes: Fab
B18: Ab1 Fab variant H1 Y39F (Fab, V domains shown)
VH: B1 VH with P28A, Y32F
VL: B1 VL
notes: Fab
B19: Ab1 Fab variant H2 S68T (Fab, V domains shown)
VH: B1 VH with P28A, S58T
VL: B1 VL
notes: Fab
B20: Ab1 Fab variant H2 N71H (Fab, V domains shown)
VH: B1 VH with P28A, N61H
VL: B1 VL
notes: Fab
B21: Ab1 Fab variant H2 F58I (Fab, V domains shown)
VH: B1 VH with P28A, F51I
VL: B1 VL
notes: Fab
B22: Ab1 Fab variant H1 A33M (Fab, V domains shown)
VH: B1 VH with P28A, A31M
VL: B1 VL
notes: Fab
B23: Ab1 Fab variant H1 A33S (Fab, V domains shown)
VH: B1 VH with P28A, A31S
VL: B1 VL
notes: Fab
B24: Ab1 Fab variant H2 S68A (Fab, V domains shown)
VH: B1 VH with P28A, S58A
VL: B1 VL
notes: Fab
B25: Ab1 Fab variant H1 F31I (Fab, V domains shown)
VH: B1 VH with P28A, F29I
VL: B1 VL
notes: Fab
B26: Ab1 Fab variant H2 D65E (Fab, V domains shown)
VH: B1 VH with P28A, D55E
VL: B1 VL
notes: Fab
B27: Ab1 Fab variant H1 N40P (Fab, V domains shown)
VH: B1 VH with P28A, N33P
VL: B1 VL
notes: Fab
B28: Ab1 Fab variant H1 F31V (Fab, V domains shown)
VH: B1 VH with P28A, F29V
VL: B1 VL
notes: Fab
B29: Ab1 Fab variant H2 G66E (Fab, V domains shown)
VH: B1 VH with P28A, G56E
VL: B1 VL
notes: Fab
B30: Ab1 Fab variant H2 G67P (Fab, V domains shown)
VH: B1 VH with P28A, G57P
VL: B1 VL
notes: Fab
B31: Ab1 Fab variant H2 G67R (Fab, V domains shown)
VH: B1 VH with P28A, G57R
VL: B1 VL
notes: Fab
B32: Ab1 Fab variant H2 S69E (Fab, V domains shown)
VH: B1 VH with P28A, S59E
VL: B1 VL
notes: Fab
B33: Ab1 Fab variant H1 A30T (Fab, V domains shown)
VH: B1 VH with P28T
VL: B1 VL
notes: Fab

In this test the target is T1, recombinant human ROR1 extracellular domain (human, UniProt Q01973 30-406).
T1 construct: biotinylated for the filter lifts; also called huROR1-ECD; human ROR1-ECD
T1 sequence (Q01973 30-406 limits assumed): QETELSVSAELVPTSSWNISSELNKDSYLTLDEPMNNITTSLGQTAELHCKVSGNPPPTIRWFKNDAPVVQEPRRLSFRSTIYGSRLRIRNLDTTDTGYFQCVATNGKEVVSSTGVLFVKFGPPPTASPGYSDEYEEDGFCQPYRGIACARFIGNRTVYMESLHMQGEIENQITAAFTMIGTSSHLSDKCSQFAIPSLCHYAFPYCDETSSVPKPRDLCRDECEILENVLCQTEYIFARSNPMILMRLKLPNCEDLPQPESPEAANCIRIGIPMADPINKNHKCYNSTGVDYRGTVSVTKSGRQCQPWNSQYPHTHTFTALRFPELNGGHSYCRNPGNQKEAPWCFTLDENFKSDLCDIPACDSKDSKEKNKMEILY
The test can be described thus: ELISA, soluble Fab on coated huROR1-ECD. How it is done: The previously described filter lift assay provides a visual, qualitative assessment of antigen binding (Example 1). In order to assess the ROR1 binding activity of Ab1 Fab in a more quantitative fashion, an ELISA assay was developed. A 96-well Costar-3366 plate was coated with 50 μL/well of 1 μg/mL human ROR1-ECD (ACROBiosystems, cat. #RO1-H522y) in PBS overnight at 4° C. The plate was rinsed once with PBS-T and blocked with 100 μL/well of 5% M-P for 1 h at 25° C. Fab samples were serially diluted 3-fold using 5% M-P and 50 μL/well was incubated for 1 h at 25° C. The plate was washed three times with PBS-T and 50 μL/well anti-human kappa, and HRP conjugate (Southern Biotech, cat. #2060-05) diluted 10,000-fold in 5% M-P was added for 1 h at 25° C. In certain assays (extended wash format), the plate was placed in large volumes (up to 1 L) of PBS-T and incubated, with mixing, for 2-5 h prior to the addition of anti-human kappa, HRP conjugate. The plate was washed three times with PBS-T, and developed with 50 μL/well 1-Step Ultra TMB-ELISA (Thermo Scientific, cat. #34028). The reaction was terminated by the addition of 2 N H2504 and the A450 was determined using a Spectramax plate reader.
In the case of B1, the equilibrium dissociation constant (Kd) turned out to be 12 nM. B2: the Kd came out at 1.4 nM.

In the case of B3, the Kd stood at 8.4 nM.

Take B4: the dissociation constant Kd was found to be 2.3 nM. For B5, the Kd was 3.3 nM. As for B6, the Kd was 0.9 nM. In the case of B7, the Kd is less than 1 nM. B8: the Kd was found to be 1.5 nM.

With B9, the Kd came out at 1.8 nM.

Take B10: the Kd was 1.3 nM. On to B11, for which the Kd amounted to 6.3 nM. Take B12: the Kd was found to be 2.2 nM.

As to B13, the Kd was 1.2 nM. Turning to B14, the equilibrium dissociation constant (Kd) came to 7.1 nM. For B15, the Kd stood at 2.2 nM. On to B16, for which the Kd stood at 46 nM. For B17 the value was 1 nM. On to B18, for which the Kd is 5.7 nM. With B19, the Kd amounted to 6.4 nM. Regarding B20, the equilibrium dissociation constant (Kd) is 1.1 nM. For B21, the dissociation constant Kd stood at 1.8 nM.

As to B22, the Kd was found to be 15 nM. Turning to B23, the Kd is 11 nM. For the molecule B24, the Kd turned out to be 1.2 nM.

In the case of B25, the Kd was determined as 5.8 nM. On to B26, for which the Kd is 4.9 nM. In the case of B27, the Kd was determined as 40 nM. Turning to B28, the Kd turned out to be 8.3 nM.

Regarding B29, the Kd was found to be 0.9 nM. The value for B30 was 0.6 nM; that for B31 was 1.7 nM; that for B32 was 1.2 nM. Consider B33, for which the Kd worked out at 16 nM.

These data come from patent US20230021388A1 (VELOSBIO, published 2023).
